From article PMC8219681, “Inhibition of MRN activity by a telomere protein motif” (Nature Communications, 2021)
Residue numbers refer to the chain shown, from its start. Names and notes keep the numbering of the source. Values belong to the binder of their own block, whether it stands above or below them.

Columns and labels:
[1] = molecular target: T1, Mre11 (S. cerevisiae, his-tagged at the C terminus) (S. cerevisiae, UniProt P32829 1-692); test: pull-down; MBP-Rif2 or MBP-Rif2-min (~5 ug, from Sf9 lysate) immobilised on amylose resin and washed; 1 ug Mre11, 500 ng Rad50 or 1 ug Xrs2 added for 1 h in 50 mM Tris-HCl pH 7.5, 200 mM NaCl, 0.2% NP40, 2 mM EDTA; eluted with 20 mM maltose; Western blot; settings: both partners purified
T1 construct: Mre11, Saccharomyces cerevisiae; also called Mre11-his; not shown: His tag, C-terminal, kept
T1 sequence (looked up): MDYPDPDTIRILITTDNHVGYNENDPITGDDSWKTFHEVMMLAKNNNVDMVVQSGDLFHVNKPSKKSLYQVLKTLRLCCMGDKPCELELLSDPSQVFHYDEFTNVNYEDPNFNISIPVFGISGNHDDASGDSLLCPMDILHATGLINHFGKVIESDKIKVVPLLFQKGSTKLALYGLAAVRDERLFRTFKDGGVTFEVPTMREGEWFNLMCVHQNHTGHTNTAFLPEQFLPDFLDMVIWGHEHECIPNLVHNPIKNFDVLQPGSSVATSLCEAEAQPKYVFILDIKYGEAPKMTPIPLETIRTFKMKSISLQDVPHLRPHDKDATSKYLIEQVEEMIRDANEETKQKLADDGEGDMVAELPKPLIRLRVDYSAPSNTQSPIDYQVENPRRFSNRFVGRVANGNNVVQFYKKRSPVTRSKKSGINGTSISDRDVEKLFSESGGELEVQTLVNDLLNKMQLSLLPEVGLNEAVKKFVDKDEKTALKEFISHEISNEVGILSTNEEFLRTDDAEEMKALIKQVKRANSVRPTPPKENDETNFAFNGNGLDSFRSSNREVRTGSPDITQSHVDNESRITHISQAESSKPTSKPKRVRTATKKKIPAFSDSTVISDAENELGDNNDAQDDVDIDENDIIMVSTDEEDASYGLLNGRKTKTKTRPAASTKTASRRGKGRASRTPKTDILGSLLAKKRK

[2] = molecular target: T2, Xrs2 (S. cerevisiae, FLAG-tagged at the C terminus) (S. cerevisiae, UniProt P33301 1-854); test: as above; settings: both partners purified
T2 construct: Xrs2, Saccharomyces cerevisiae; also called Xrs2-FLAG; not shown: FLAG, C-terminal, kept
T2 sequence (looked up): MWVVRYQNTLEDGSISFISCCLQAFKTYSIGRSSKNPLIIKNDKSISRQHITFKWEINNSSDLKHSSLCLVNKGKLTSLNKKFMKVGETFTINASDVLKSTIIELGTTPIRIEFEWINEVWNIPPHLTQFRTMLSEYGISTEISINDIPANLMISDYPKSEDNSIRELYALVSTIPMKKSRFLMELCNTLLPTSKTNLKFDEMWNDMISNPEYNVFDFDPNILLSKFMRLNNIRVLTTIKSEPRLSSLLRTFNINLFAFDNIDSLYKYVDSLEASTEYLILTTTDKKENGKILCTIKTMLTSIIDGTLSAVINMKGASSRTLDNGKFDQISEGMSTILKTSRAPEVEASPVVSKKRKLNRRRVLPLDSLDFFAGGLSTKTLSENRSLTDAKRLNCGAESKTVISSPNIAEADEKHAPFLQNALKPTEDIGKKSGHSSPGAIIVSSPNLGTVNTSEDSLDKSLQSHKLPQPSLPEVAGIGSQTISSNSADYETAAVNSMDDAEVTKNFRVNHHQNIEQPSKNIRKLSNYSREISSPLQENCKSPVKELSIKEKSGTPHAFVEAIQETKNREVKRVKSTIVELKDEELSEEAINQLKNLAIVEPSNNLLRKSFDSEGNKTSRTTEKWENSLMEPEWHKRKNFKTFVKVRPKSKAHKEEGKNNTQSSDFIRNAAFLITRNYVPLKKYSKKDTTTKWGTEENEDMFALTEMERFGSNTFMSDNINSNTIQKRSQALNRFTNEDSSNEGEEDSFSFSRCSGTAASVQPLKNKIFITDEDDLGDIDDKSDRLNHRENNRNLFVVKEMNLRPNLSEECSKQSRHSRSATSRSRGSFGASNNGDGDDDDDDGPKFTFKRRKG

binding result [1]: binds
binding result [2]: binds
B1: MBP-Rif2 (S. cerevisiae Rif2, wild type) (natural protein, UniProt Q06208 1-395, looked up)
chain: MEHVDSDFAPIRRSKKVVDSDKIVKAISDDLEQKNFTVLRKLNLVPIKKSVSSPKVCKPSPVKERVDHVFYQKFKSMALQELGTNYLSISYVPSLSKFLSKNLRSMKNCIVFFDKVEHIHQYAGIDRAVSETLSLVDINVVIIEMNDYLMKEGIQSSKSKECIESMGQASYSGQLDFEASEKPSNHTSDLMMMVMRKINNDESIDHIVYFKFEQLDKLSTSTIIEPSKLTEFINVLSVLEKSNNIAFKVLIYSNNVSISSLLSTSLKKKLNTKYTVFEMPILTCAQEQEYLKKMIKFTFDSGSKLLQSYNSLVTCQLNNKESNLAIFFEFLKVFPHPFTYLFNAYTEIIVQSRTFDELLDKIRNRLTIKNYPHSAYNFKKNQRLPLKLTRKVHDR
notes: Rif2, Saccharomyces cerevisiae, full length, expressed from the vector pFB-MBP-Rif2-his; MBP was cleaved with PreScission protease only after elution from the resin; N-terminal place of MBP is read from the construct's name MBP-Rif2-his; also called ScRif2; not shown: MBP, N-terminal, kept

binding result [1]: binds
binding result [2]: binds
B2: MBP-Rif2-min (S. cerevisiae Rif2 F8E P10N) (natural protein, UniProt Q06208 1-395, looked up)
chain: B1 chain with F8E, P10N
notes: Rif2, Saccharomyces cerevisiae, full length, F8E P10N, expressed from the vector pFB-MBP-Rif2-min-his; MBP was cleaved with PreScission protease only after elution from the resin; N-terminal place of MBP is read from the construct's name; also called mutant Rif2; not shown: MBP, N-terminal, kept
